Target: native human CD4 on cells (SupT1 T cell line; human PBL/PBMC) (human) (UniProt P01730)
Assay: ratio of BIAcore Ka on rCD4 to flow cytometry Ka on nCD4

Ration of Ka (rCD4/nCD4): 6.1
Substance: chimeric Leu3a (antibody)

Source: patent US7041871
